Consider three molecules from US20080058278A1, “ATTENUATION OF HYPEROXIA-INDUCED CELL DEATH WITH MITOCHONDRIAL ALDEHYDE DEHYDROGENASE” (THE CHILDREN'S MERCY HOSPITAL, priority 2006, published 2008).

Data set [1] deals with Neo-A549 cells. Description: Necrotic cell death, trypan blue exclusion assay. The class given is cell-based, human. Particulars: 10 μM inhibitor pretreatment 30 minutes. From the text:
(§1) The cultured media were collected and saved.

The test system of data set [2] is mtALDH-A549 cells. The experiment in a line: Necrotic cell death, trypan blue exclusion assay. The class given is cell-based, human. To be noted: for necrotic cell death (percentage of stained cells to total cells): mtALDH-A549 cells, 10 μM inhibitor pretreatment 30 minutes; for necrotic cell death, trypan blue exclusion: mtALDH overexpression (mtALDH-A549).
Description: (§2) Plasmid Construction and Transfection: For human mt ALDH plasmid construction, full-length human mtALDH cDNA without stop codon was amplified from a human lung cDNA library (Clontech, Mountain View Calif.) by RT-PCR using following primers, sense: […] (SEQ ID NO. 1), antisense: […] (SEQ ID NO. 2). The resulting human mtALDH cDNA was subcloned into the plasmid vector pcDNA3.1 (Invitrogen, Carlsbad, Calif.). The mtALDH sequence (SEQ ID NO. 3) was confirmed by direct nucleotide sequencing. mtALDH-pcDNA3 and empty pcDNA3.1 plasmids were transfected into A549 cells using LipofectAMINE (Invitrogen, Carlsbad, Calif.). The transfected cells were then selected by G418 sulfate at 500 μg/mL for ten days. A single clone was selected by limited dilution and mtALDH protein expression was confirmed by Western blotting with anti-V5 antibody (Invitrogen, Carlsbad, Calif.).
as §1

The subject of data set [3] is mtALDH-A549 cells. Format: cell-based. Particulars: 10 μM inhibitor pretreatment 30 minutes, 48-hour hyperoxic exposure (95% O2, 5% CO2).
Description: as §2, §1

Data set [4] has as its system Neo-A549 cells. To be noted: 10 μM inhibitor pretreatment 30 minutes, 48-hour hyperoxic exposure (95% O2, 5% CO2).
Description: Cell culture and Cell Treatment: A549 cells were purchased from American Type culture collection (ATCC, Manassas, Va.) and grown in Dulbecco's Modified Eagle Medium (DMEM) containing 10% fetal bovine serum, 50 μg/mL penicillin and 50 μg/mL streptomycin in 5% CO2 at 37° C. Normoxic exposure of the cells was conducted under room air and 5% CO2 in a humidified cell culture incubator at 37° C. Hyperoxic exposure of the cells was conducted in a humidified chamber (Billups and Rothenberg, Del Mar, Calif.) and the chamber was flushed with 95% O2, 5% CO2 (hyperoxia) at a flow rate of 10 liters per minute for 15 minutes prior to incubation at 37° c. In U0126 and LY294002 pretreatment experiments, cells were treated with or without 10 μM U0216 or LY294002 (two well-known inhibitors) for 30 minutes prior to normoxic or hyperoxic exposure.
The lactate dehydrogenase (LDH) assay kit was from Biovision (Mountain View, Calif.) and LDH activity was measured per manufacture's instruction. Briefly, cells were incubated in an incubator (5% CO2, 37° C.) for the appropriate time of treatment. The cultured media were collected and saved. […] The absorbance of all samples at 490 nm was measured using a microplate reader. The cytotoxicity was determined by the percentage of LDH activity in cultured medium over combined LDH activities of the cultured medium and cell lysate.
Data set [5] deals with mtALDH-A549 cells. Description: Apoptotic cell death, Annexin V staining and flow cytometry. The class given is cell-based, human. To be noted: mtALDH overexpression (mtALDH-A549), 48-hour hyperoxic treatment; Neo-A549 0.84%. How it is done: Analysis of Apoptotic Cells: The Apoptosis Detection kit was from R&D System (Minneapolis, Minn.). Treated cells were trypsinized and collected by centrifugation at 500×g for 5 minutes. Cells were washed with cold PBS once and resuspended in 100 uL binding buffer containing 10 mM HEPES pH 7.4, 150 mM NaCl, 5 mM KCl, 1 mM MgCl2 and 1.8 mM CaCl2. Cells were stained with Annexin V-FITC (0.05 μg per sample) for 15 minutes according to manufacturer's instructions. The stained cells were then subjected to flow cytometry analysis.
A general note: Flow cytometry measures light scatter and fluorescence of single cells or particles in a stream.

The subject of data set [6] is mtALDH-A549 cells. The experiment in a line: Intracellular and mitochondrial ROS levels by flow cytometry. Format: cell-based, human. How it is done:
Assessment of Intracellular and Mitochondrial ROS Levels: After normoxic or hyperoxic treatment, cultured cells were stained with 10 μM of 2′,7′-dicholordihydrofluorescein diacetate, succinimidyl ester (OxyBURST® Green H2DCFDA (2′,7′-dichlorodihydrofluorescin diacetate)), SE, Molecular Probe, Oreg.) for 10 minutes. The stained cells were washed three times with PBS and then trypsinized with 0.025% trypsin and 0.05% EDTA. The resuspended cells were subjected to fluorescent intensity measured by flow cytometry. For mitochondria-derived ROS measurement, cells were incubated with 10 μM dihydrorhodamaine 123 (Molecular Probe, OR) for 15 minutes. The stained cells were washed three times with PBS and then trypsinized with 0.25% trypsin, 0.05% EDTA. The resuspended cells were subjected to rhodamine 123 fluorescent intensity measurement by flow cytometry. Statistical Analysis: The results are expressed as the mean±SEM of data obtained from two or more experiments; or where appropriate, as mean±SD. Statistical analysis was performed using the student t test for paired comparisons and ANOVA for multiple comparisons. A value of p<0.05 was considered significant.

In a further data set the test system is ERK. Description: ERK phosphorylation, Western blotting. Format: cell-based, human. To be noted: 48-hour normoxic conditions, normalized by total ERK. Here is the method: Western Blotting Analysis: Antibodies were purchased from Cell Signaling Technology (Beverly, Mass.) and they were used according to manufacturer's instructions. Cultured cells after treatment were washed with cold PBS three times, and the 300 μl of sample lysis buffer (62.5 mM Tris-HCl pH 6.8, 2% w/v SDS, 10% glycerol, 200 mM dithiothreitol, and protease cocktails) was added to each plate. Cell lysates were centrifuged at 12,000×g for 10 minutes. The supernatants were saved for analysis. Protein concentration was determined by bicinchoninic acid (BCA) protein assay kit (Sigma, St. Louis, Mo.). Samples containing 50 μg of protein in loading sample buffer were boiled for 5 minutes and loaded on 12% Tris-Glycine SDS-PAGE gels. Gels were run at 120 V for approximately two hours and transferred overnight at 20 V to nitrocellulose membranes. Membranes were incubated with the blocking buffer containing 5% non-fat mile in PBST (0.1% Tween-20 in PBS) for one hour, washed with PBST and incubated overnight with the primary antibody against either phosphorylated ERK or phosphorylated Akt (Ser473). […] Phosphorylated ERK and phosphorylated Akt protein band intensities on autoradiogram were analyzed with Image-Quant (Molecular Dynamics, Sunnyvale, Calif.) and normalized by nonphosphorylated ERK, nonphosphorylated Akt or β-actin in the same sample, respectively.
(In general: In western blotting, separated proteins are transferred to a membrane and probed.)

Another data set relates to Akt. Description: Akt phosphorylation and total Akt, Western blotting. The class given is cell-based, human. How it is done: Western Blotting Analysis: Antibodies were purchased from Cell Signaling Technology (Beverly, Mass.) and they were used according to manufacturer's instructions. Cultured cells after treatment were washed with cold PBS three times, and the 300 μl of sample lysis buffer (62.5 mM Tris-HCl pH 6.8, 2% w/v SDS, 10% glycerol, 200 mM dithiothreitol, and protease cocktails) was added to each plate. Cell lysates were centrifuged at 12,000×g for 10 minutes. The supernatants were saved for analysis. Protein concentration was determined by bicinchoninic acid (BCA) protein assay kit (Sigma, St. Louis, Mo.). Samples containing 50 μg of protein in loading sample buffer were boiled for 5 minutes and loaded on 12% Tris-Glycine SDS-PAGE gels. Gels were run at 120 V for approximately two hours and transferred overnight at 20 V to nitrocellulose membranes. Membranes were incubated with the blocking buffer containing 5% non-fat mile in PBST (0.1% Tween-20 in PBS) for one hour, washed with PBST and incubated overnight with the primary antibody against either phosphorylated ERK or phosphorylated Akt (Ser473). The membranes were washed in PBST and proteins were visualized using horseradish peroxidase (HRP)-conjugated anti-rabbit IgG and the enhanced chemiluminescence (Amersham Bioscience, Piscataway, N.J.). The membranes were stripped using a standard stripping solution (62.5 mM Tris-HCl, pH 6.8, 2% SDS and 100 mM β-mercaptoethanol) at 50° C., and reprobed with nonphosphorylated ERK, nonphosphorylated Akt and β-actin antibodies. Phosphorylated ERK and phosphorylated Akt protein band intensities on autoradiogram were analyzed with Image-Quant (Molecular Dynamics, Sunnyvale, Calif.) and normalized by nonphosphorylated ERK, nonphosphorylated Akt or β-actin in the same sample, respectively.

The target in a further data set is T1, mtALDH (Homo sapiens, UniProt P05091).
T1 construct: endogenous in cells; host or cells: A549 human lung type II epithelial cells (isolated mitochondrial protein or cell homogenate supernatant)
T1 sequence (P05091 18-517): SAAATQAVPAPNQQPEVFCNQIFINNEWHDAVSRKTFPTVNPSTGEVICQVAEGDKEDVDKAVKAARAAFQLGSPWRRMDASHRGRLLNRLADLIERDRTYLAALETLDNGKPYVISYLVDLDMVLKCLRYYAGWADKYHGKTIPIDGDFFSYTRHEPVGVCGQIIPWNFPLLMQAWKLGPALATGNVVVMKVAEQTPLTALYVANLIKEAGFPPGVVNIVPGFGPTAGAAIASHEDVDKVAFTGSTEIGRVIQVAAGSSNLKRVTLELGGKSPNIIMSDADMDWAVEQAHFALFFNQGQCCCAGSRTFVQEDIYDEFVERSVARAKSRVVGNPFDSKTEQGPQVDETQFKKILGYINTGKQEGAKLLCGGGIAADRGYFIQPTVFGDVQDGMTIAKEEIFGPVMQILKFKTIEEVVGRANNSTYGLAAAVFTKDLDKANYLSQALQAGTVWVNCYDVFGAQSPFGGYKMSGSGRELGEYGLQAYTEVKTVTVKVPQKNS
Description: mtALDH activity assay (NADH formation at 340 nm). The class given is cell-based. Particulars: cell homogenate supernatant, p<0.01, n=6. Here is the method: mtALDH Activity Assay: mtALDH activity was measured as described previously (9). Neo-A549 and mtALDH A549 cells cultured on plates were collected in buffer of 50 mM Tris-HCl, pH 8.5. Resuspended cells were sonicated at setting 4 for 5 seconds by VirSonic sonicator from VirTis (Gardiner, N.Y.). The cell homogenates were centrifuged at 12,000×g for 10 minutes. The supernatants were saved and protein concentration was determined. Mitochondria were isolated from cultured cells using a mitochondria isolation kit from Pierce (Rockford, Ill.). The enzyme activity assay was carried out in 100 μL of 50 mM Tris-HCl, pH 8.5 containing 50 μg prepared protein, 15 μM propionaldehyde, 1 mM NAD and 1 mM 4-methylpyrazole. The ALDH activity was determined by spectrometer for NADH formation at 340 nm.

The mark [7] stands for this setting: 48-hour hyperoxic exposure (95% O2, 5% CO2).

Consider `O=c1cc(N2CCOCC2)oc2c(-c3ccccc3)cccc12` [LY294002], for which the “necrotic cell death (percentage of stained cells to total cells)” value with Neo-A549 cells [1] (setting [7]) is on record as 86.6%; in the data set on Neo-A549 cells [1] (48-hour normoxic exposure) it was 9.0%; with mtALDH-A549 cells [2] (setting [7]), 28.0%; in the data set on mtALDH-A549 cells [2] (48-hour normoxic exposure), 4.3%.

`N#CC(=C(/N)Sc1ccccc1N)/C(C#N)=C(\N)Sc1ccccc1N` [U0126]: the “necrotic cell death (percentage of stained cells to total cells)” value in the data set on Neo-A549 cells [1] (setting [7]) is 44.5%; in the data set on Neo-A549 cells [1] (48-hour normoxic exposure), 12.6%; in the data set with mtALDH-A549 cells [2] (setting [7]), 26.0%; in the data set on mtALDH-A549 cells [2] (48-hour normoxic exposure) it was 11.6%. The entries for the “necrotic cell death (LDH cytotoxicity)” value in the data set on mtALDH-A549 cells [3] and in the data set on Neo-A549 cells [4] were 9.4% and 14.1%, respectively.

B1: mtALDH: human mitochondrial aldehyde dehydrogenase (SEQ ID NO. 3) overexpressed as V5 fusion protein in A549 cells by pcDNA3.1 plasmid transfection (protein, listed as Homo sapiens)
chain: MLRAAARFGPRLGRRLLSAAATQAVPAPNQQPEVFCNQIFINNEWHDAVSRKTFPTVNPSTGEVICQVAEGDKEDVDKAVKAARAAFQLGSPWRRMDASHRGRLLNRLADLIERDRTYLAALETLDNGKPYVISYLVDLDMVLKCLRYYAGWADKYHGKTIPIDGDFFSYTRHEPVGVCGQIIPWNFPLLMQAWKLGPALATGNVVVMKVAEQTPLTALYVANLIKEAGFPPGVVNIVPGFGPTAGAAIASHEDVDKVAFTGSTEIGRVIQVAAGSSNLKRVTLELGGKSPNIIMSDADMDWAVEQAHFALFFNQGQCCCAGSRTFVQEDIYDEFVERSVARAKSRVVGNPFDSKTEQGPQVDETQFKKILGYINTGKQEGAKLLCGGGIAADRGYFIQPTVFGDVQDGMTIAKEEIFGPVMQILKFKTIEEVVGRANNSTYGLAAAVFTKDLDKANYLSQALQAGTVWVNCYDVFGAQSPFGGYKMSGSGRELGEYGLQAYTEVKTVTVKVPQKNS
modifications: V5 tag
As to B1, the “necrotic cell death, trypan blue exclusion” value amounted to 6.5% in the data set on mtALDH-A549 cells [2] (24-hour hyperoxic exposure, Neo-A549 25.3%); 9.1% in the data set on mtALDH-A549 cells [2] (48-hour hyperoxic exposure, Neo-A549 50.5%); 15.1% in the data set on mtALDH-A549 cells [2] (72-hour hyperoxic exposure, Neo-A549 52.4%). In addition, the “apoptotic cell death (Annexin V positive cells)” value in the data set on mtALDH-A549 cells [5] is recorded as 0.48%. Further, in the data set with mtALDH-A549 cells [6] (24-hour hyperoxia), the “intracellular ROS level (H2DCFDA staining)” value is reported as “increased only approximately two fold”. In the data set with mtALDH-A549 cells [6] (24-hour hyperoxia, p<0.001), the “intracellular ROS level versus Neo-A549 cells” value is on record as “significantly decreased”. The “mitochondrial ROS level (dihydrorhodamine 123) versus Neo-A549 cells” value with mtALDH-A549 cells [6] (24-hour hyperoxic exposure, p<0.001) is listed as “significantly decreased”. Besides, the “ERK phosphorylation in mtALDH-A549 cells compared to Neo-A549 cells” value in the data set on ERK is on record as “seven-fold increase”. The “Akt phosphorylation in mtALDH-A549 cells versus Neo-A549 cells” value in the data set on Akt (0, 24 and 48-hour hyperoxic exposure) is recorded as 2-3 times. Besides, the “phosphorylated Akt level in mtALDH-A549 cells versus Neo-A549 cells” value in the data set on Akt (first 24-hour culture under normoxic conditions) is on record as “two-fold higher”. The “total Akt in mtALDH-A549 cells compared to Neo-A549 cells” value in the data set on Akt (prior to hyperoxic treatment (0 hour)) is “about 1.8 fold”. Moreover, the “total mtALDH activity in mtALDH-A549 cells compared to Neo-A549 cells” value in the data set with mtALDH is recorded as “increased more than two fold”.
